Measurements published in article PMC7661550, “A ‘Split-Gene’ Transketolase From the Hyper-Thermophilic Bacterium Carboxydothermus hydrogenoformans: Structure and Biochemical Characterization” (Frontiers in Microbiology, 2020).

B1: ChTK-F (Carboxydothermus hydrogenoformans Z-2901) (protein)
chain 1: MQDEILNLKLIANQLRQHVVKMVGEANSGHPGGSLSAADILAVLFFKEMRIDPANPKWQDRDRFVLSKGHASPVLYAALAERGFFPKEWLSQFRKINSPLQGHPDMKKVPGVEMSTGSLGQGFSTAVGMALGLKLDRSPARVYVLLGDGEIQEGIVWEAAMAAAHYKLNNLTAILDYNGLQIDGPVQEVMNPEPVADKWRSFGFKVITVDGHNIPEIINAIDAARLHLEGPTIIIAKTVKGKGVSFMENRVEWHGSAPKPEQVAEALSELQVGREKLWEE
chain 2: MGGIATREAYGKALVELGQENPKIVVLDADLSKSTKTSDFAKAFPERFFNMGIAEQNLMGVAAGLSTVGKIPFASTFAVFAAGRAFEIIRNSICYPKLNVKIAATHAGLTVGEDGASHQAIEDLALMRVLPNMQVFVPADAAQTRAIVKKAAEIEGPVYIRLGRSGVPEVFSPDIRFEPGRGTVLKEGKDVTIVALGIMTAKALEAAKMLEAEGIAARVVDMASLKPIDRELLVESARLTGAVVTAEEHSVIGGLGSAVAEVLSEEYPIPVVKVGVNDVFGESGTPQALLEKYGLTARDVVAAVQKALTLKR
notes: two split-gene subunits (alpha ChTK-N, PP domain)
B2: ChTK-C, C-terminal 'split-gene' transketolase polypeptide (Pyr and C-terminal domains) of Carboxydothermus hydrogenoformans (natural protein, Carboxydothermus hydrogenoformans Z-2901)
chain: MGGIATREAYGKALVELGQENPKIVVLDADLSKSTKTSDFAKAFPERFFNMGIAEQNLMGVAAGLSTVGKIPFASTFAVFAAGRAFEIIRNSICYPKLNVKIAATHAGLTVGEDGASHQAIEDLALMRVLPNMQVFVPADAAQTRAIVKKAAEIEGPVYIRLGRSGVPEVFSPDIRFEPGRGTVLKEGKDVTIVALGIMTAKALEAAKMLEAEGIAARVVDMASLKPIDRELLVESARLTGAVVTAEEHSVIGGLGSAVAEVLSEEYPIPVVKVGVNDVFGESGTPQALLEKYGLTARDVVAAVQKALTLKR
notes: Pyr domain residues 1-162 and C-terminal domain residues 164-312; calculated mass of the His-tagged protein 33.2 kDa; chain D of PDB 6YAK, all chains of PDB 6YAJ; The gene was cloned into the LIC site of pLATE51; By gel filtration the free protein elutes as a tetramer; two copies stand in the α2β2 heterotetramer ChTK-F; also called β subunit of ChTK-F (α2β2); ChTK β4; source: E. coli BL21 DE3*, …
B3: ChTK-N, N-terminal 'split-gene' transketolase polypeptide (PP domain) of Carboxydothermus hydrogenoformans (natural protein, Carboxydothermus hydrogenoformans Z-2901)
chain: MQDEILNLKLIANQLRQHVVKMVGEANSGHPGGSLSAADILAVLFFKEMRIDPANPKWQDRDRFVLSKGHASPVLYAALAERGFFPKEWLSQFRKINSPLQGHPDMKKVPGVEMSTGSLGQGFSTAVGMALGLKLDRSPARVYVLLGDGEIQEGIVWEAAMAAAHYKLNNLTAILDYNGLQIDGPVQEVMNPEPVADKWRSFGFKVITVDGHNIPEIINAIDAARLHLEGPTIIIAKTVKGKGVSFMENRVEWHGSAPKPEQVAEALSELQVGREKLWEE
notes: forms the PP domain; calculated mass of the His-tagged protein 31.0 kDa; chain A of PDB 6YAK; The gene was cloned into the LIC site of pLATE51; By gel filtration the free protein elutes as a dimer; two copies stand in the α2β2 heterotetramer ChTK-F; also called α subunit of ChTK-F (α2β2); source: E. coli BL21 DE3*, purified (heat treatment at 50°C, HisTrap/Ni-NTA, Superdex 200 gel filtration)

What was measured:
purified protein = substrate: O=CCO; experiment: purified protein; format: biochemical, Carboxydothermus hydrogenoformans; settings: hydroxypyruvate 100 mM as ketol donor, TPP, CaCl2, 10 mM HEPES pH 7.2, 0.1 M NaCl, room temperature
[1] = target: the molecule itself; experiment: SEC; each protein alone on a calibrated Superdex 200 HiLoad 16/60 column, 10 mM HEPES, 0.1 M NaCl, pH 7.2; apparent molecular mass
[2] = target: the molecule itself; experiment: crystal structure; reconstituted ChTK-F α2β2 with TPP and Ca2+, 2.1 M DL-malic acid pH 7.0, space group I222, 1.4 Å (PDB 6YAK); also a PEG 1500 crystal form at 2.1 Å

Row | Protein | Km (purified protein) | stoichiometry N [1] | stoichiometry N [2]
1 | B1 | 41 ± 4 mM | – | –
2 | B2 | – | 4 | 2
3 | B3 | – | 2 | –
